Source: article doi:10.1101/2020.10.21.348805 (bioRxiv, 2020)

Target: T1, GST-OsDMI3 (rice (Oryza sativa), UniProt Q6AVM3 1-516)
T1 sequence (looked up): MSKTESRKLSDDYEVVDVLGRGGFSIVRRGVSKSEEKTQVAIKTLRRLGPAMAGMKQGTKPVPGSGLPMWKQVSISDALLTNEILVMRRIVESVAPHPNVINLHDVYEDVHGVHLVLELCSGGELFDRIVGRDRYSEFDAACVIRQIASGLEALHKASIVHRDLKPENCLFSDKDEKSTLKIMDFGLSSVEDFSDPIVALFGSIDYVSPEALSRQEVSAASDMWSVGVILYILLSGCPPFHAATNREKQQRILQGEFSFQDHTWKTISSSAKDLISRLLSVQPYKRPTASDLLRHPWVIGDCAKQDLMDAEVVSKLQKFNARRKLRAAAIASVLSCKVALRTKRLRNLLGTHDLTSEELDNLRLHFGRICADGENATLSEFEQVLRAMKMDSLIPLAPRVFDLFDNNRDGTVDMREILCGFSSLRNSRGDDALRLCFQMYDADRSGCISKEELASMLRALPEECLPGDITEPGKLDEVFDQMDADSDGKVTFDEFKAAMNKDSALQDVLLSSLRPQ
Test: pull-down

B1: His-OsMKK6 (enzyme, rice (Oryza sativa), UniProt Q5QN75 1-355, looked up)
chain: MRGKKPHKELKLSVPAQETPVDKFLTASGTFKDGELRLNQRGLQLISEETADEPQSTNLKVEDVQLSMDDLEMIQVIGKGSGGIVQLVRHKWVGTLYALKGIQMNIQEAVRKQIVQELKINQATQNAHIVLCHQSFYHNGVIYLVLEYMDRGSLADIIKQVKTILEPYLAVLCKQVLEGLLYLHHERHVIHRDIKPSNLLVNRKGEVKITDFGVSAVLASSMGQRDTFVGTYNYMAPERISGSSYDYKSDIWSLGLVILECAIGRFPYIPSEGEGWLSFYELLEAIVDQPPPSAPADQFSPEFCAFISSCIQKDPAERMSASELLNHPFIKKFEDKDLDLRILVESLEPPMNISE
binding result: binds
